T1: hsEREG-His (mature human EREG-6His fusion protein) (human, UniProt O14944 30-108)
T1 sequence: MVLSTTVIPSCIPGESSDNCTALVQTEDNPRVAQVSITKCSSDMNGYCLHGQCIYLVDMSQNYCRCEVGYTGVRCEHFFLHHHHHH

B1: H240-G1d/L73-k (antibody, human IgG1, kappa, V domains shown)
VH: QDQLVQSGAEVKKPGASVKVSCKASGFNIKDTYIQWVRQAPGQGLEWMGRIDPLRKQTKYREKFEGRVTITADTSTNTAYMELSSLRSEDTAVYYCVRSGREFDYWGQGTLVTVSS
VL: DIQMTQSPSSLSASVGDRVTITCRASQDIHKYIAWYQQKPGQAPRLLIQYTSTLQPGVPSRFSGSGSGTDYTFTISSLQPEDIATYYCLQYEQLRTFGGGTKVEIKR
B2: H206-G1d/L73-k (antibody, human IgG1, kappa, V domains shown)
VH: B1 VH with K13N, K56R, Y105F
VL: B1 VL
B3: H240-G1d/L53-k (antibody, human IgG1, kappa, V domains shown)
VH: B1 VH
VL: B1 VL with E92D, Q93N
B4: chimeric antibody EP27 (cH-G1/cL-k) (antibody, human IgG1, kappa, V domains shown)
VH: EDQLQQSGAELVKPGASVKLSCTASGFNIKDTYIQWVKLRPEQGLEWIGRIDPLNGNTKYVPKFQGKATITADTSSNTAYLQLSSLTSEDTAVYYCVRSGTLFDFWGQGTTLTVSS
VL: DIQMTQSPSSLSASLGGKVTITCKASQDIHKYIAWYQHKPGKGPRLLIQYTSTLQPGIPSRFSGSGSGRDYSFSISNLEPEDIATYYCLQYDNLRTFGGGTKLEIKR
notes: mouse EP27 variable regions with human IgG1 (G1) and kappa constant regions; also called chimeric EP27
B5: H87-G1d/LB-k (antibody, human IgG1, kappa, V domains shown)
VH: B1 VH with R55T, K56G, R61Q, R101T, E102S, Y105F
VL: B1 VL with R24K, E92D, Q93N

Where a chain is given by its changes, count along the chain named.

One experiment deals with T1, hsEREG-His (mature human EREG-6His …). As to the kind of experiment: cell-based or functional assay.
Consider B1, for which the “IC50 (read off the curve), growth ratio of EGFR_BAF cells with hsEREG-His 2.5 ng/mL” value (shortened to “IC50 (read off the curve), growth ratio”) is ~0.5 µg/mL.

Take B2: the “IC50 (read off the curve), growth ratio” value is ~0.8 µg/mL.

With B3, the “IC50 (read off the curve), growth ratio” value is ~0.4 µg/mL.

For B4, the “IC50 (read off the curve), growth ratio” value was ~0.7 µg/mL.

The next experiment deals with T2, cynomolgus EREG (Biacore analyte) (cynomolgus monkey, UniProt O14944 63-108 (human entry), limits assumed).
T2 construct: also called cynomolgus monkey EREG; cEREG
T2 sequence (O14944 other isoform, or with tags, fused parts or gaps limits assumed): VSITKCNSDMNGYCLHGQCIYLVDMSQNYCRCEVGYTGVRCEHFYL
The experiment is described as follows: SPR (Biacore T100); KD for monkey EREG over KD for human EREG. The method, then:
(§1) The affinity and association rate constant of an anti-EREG antibody for an antigen were measured by the single-cycle kinetics method of surface plasmon resonance assay using Biacore™-T100 (GE Healthcare Japan). HBS-EP+ (GE Healthcare Japan) was used for the running buffer, and an amine coupling kit (GE Healthcare Japan) was used to covalently bond Protein A to the CM5 chip (carboxymethyl dextran-coated chip). Each anti-EREG antibody was prepared so that approximately 350 RU will be captured by Protein A. Human EREG or cynomolgus EREG used as the analyte was prepared at 0, 0.7, 1.4, 2.8, 5.6, and 11.2 nM using HBS-EP+. Measurement was carried out by first allowing Protein A to capture the antibody solution, and then at a flow rate of 30 μL/min, successively injecting each of the 0, 0.7, 1.4, 2.8, 5.6, and 11.2 nM human EREG or cynomolgus EREG solutions for three minutes to allow reaction to take place. Then, the solution was switched to HBS-EP+, and the dissociation phase was measured for 15 minutes. After completion of the dissociation phase measurement, the sensor chip was washed with 25 mM NaOH and regenerated. The measurement at zero concentration was similarly carried out by allowing Protein A to capture the antibody solution, and performing three-minute HBS-EP+ injections successively for five times to allow reaction to take place, and then switching to HBS-EP+ to measure the dissociation phase for 15 minutes. After completion of the dissociation phase measurement, the sensor chip was washed with 25 mM NaOH and regenerated. A data analysis software exclusively for Biacore, Biacore T100 Evaluation Software Version 2.0.1, was used to perform kinetic analyses to calculate the association rate constant (kₐ), dissociation rate constant (kd), and the rate constant ratio from the obtained sensorgrams. To correct for the day-to-day differences in the measurement values, FIGS. 1 to 4 and Tables 16 and 19 show ratios based on taking the value of the control sample (cH-G1/cL-k) measured on the same day as 1.
(SPR reads the build-up and loss of mass on a sensor chip optically.)
As for B5, the “cEREG (nM)/hEREG (nM)” value is 35.1 ratio.

With B1, the “cEREG (nM)/hEREG (nM)” value was 3.6 ratio.

Turning to B2, the “cEREG (nM)/hEREG (nM)” value is 3.4 ratio.

In the case of B3, the “cEREG (nM)/hEREG (nM)” value was found to be 5.4 ratio.

As for B4, the “cEREG (nM)/hEREG (nM)” value came to 40.9 ratio.

The next experiment addresses T3, Human EREG (Biacore analyte) (human, UniProt O14944 63-108).
T3 construct: also called hEREG; human epiregulin
As to the kind of experiment: SPR (Biacore T100), antibody captured on Protein A, EREG as analyte, single-cycle kinetics. The method, then:
as §1
The Kd is the free concentration of one partner at which half of the binding sites on the other are occupied at equilibrium, for simple one-to-one binding. What is called koff is the first-order rate constant of dissociation. Usually kon stands for the rate constant with which the complex forms. B5 registered an equilibrium dissociation constant (Kd) of 0.15 nM, an off-rate (koff) of 0.0002 s⁻¹ and an on-rate constant (kon) of 1.3e+06 M⁻¹ s⁻¹.

B1 displayed a dissociation constant Kd of 0.22 nM, a koff of 7.7e-05 s⁻¹ and an association rate constant (kon) of 340000 M⁻¹ s⁻¹.

In turn, B2 displayed an equilibrium dissociation constant (Kd) of 0.13 nM, a koff of 7.4e-05 s⁻¹ and an association rate constant (kon) of 550000 M⁻¹ s⁻¹.

As to B3, the equilibrium dissociation constant (Kd) is 0.27 nM, the koff worked out at 0.00011 s⁻¹ and the kon is 420000 M⁻¹ s⁻¹.

In the case of B4, binding was characterised by a dissociation constant (Kd) of 0.2 nM, the koff is 0.00022 s⁻¹ and the kon worked out at 1.1e+06 M⁻¹ s⁻¹.

A further experiment addresses T2, cynomolgus EREG (Biacore analyte). The description is as above. The method, then: as §1
The molecule B5 displayed a Kd of 5.2 nM, a koff of 0.0045 s⁻¹ and an on-rate (kon) of 860000 M⁻¹ s⁻¹.

For B1, the dissociation constant Kd worked out at 0.87 nM, the koff was determined as 0.00029 s⁻¹ and the kon was found to be 340000 M⁻¹ s⁻¹.

B2 had a Kd of 0.45 nM, a koff of 0.00023 s⁻¹ and a kon of 500000 M⁻¹ s⁻¹.

Turning to B3, the affinity, expressed as Kd, was 1.5 nM; the off-rate constant (koff) is 0.00089 s⁻¹; the kon stood at 610000 M⁻¹ s⁻¹.

B4 had a dissociation constant (Kd) of 5.2 nM, a koff of 0.0052 s⁻¹ and an on-rate constant (kon) of 990000 M⁻¹ s⁻¹.

The next experiment has the same target. The experiment is described as follows: SPR (Biacore T100), antibody captured on Protein A, EREG as analyte; KD for monkey EREG over KD for human EREG. The protocol:
as §1
Regarding B5, the “cEREG KD (nM)/hEREG KD (nM)” value turned out to be 35.1 ratio.

Turning to B4, the “cEREG KD (nM)/hEREG KD (nM)” value stood at 40.9 ratio.

For the origin of these results see patent US20160159919A1 (Chugai, published 2016).
